Data: article PMC7229842, “Molecular basis of the multifaceted functions of human leucyl-tRNA synthetase in protein synthesis and beyond” (Nucleic Acids Research, 2020)

Tests used:
[1] = molecular target: T1, Human cytosolic glutamyl-prolyl-tRNA synthetase (human, UniProt P07814 1-1512); assay: pull-down; in vitro assembly of the MSC as in a2 but lacking IRS; anti-Flag beads on MRS-Flag; settings: both partners purified
T1 construct: human cytosolic EPRS, gene cloned from the cDNA of HEK293 cells; also called EPRS; source: recombinant from a modified pET28b, purified (Ni-NTA, gel filtration)
T1 sequence (P07814 whole entry): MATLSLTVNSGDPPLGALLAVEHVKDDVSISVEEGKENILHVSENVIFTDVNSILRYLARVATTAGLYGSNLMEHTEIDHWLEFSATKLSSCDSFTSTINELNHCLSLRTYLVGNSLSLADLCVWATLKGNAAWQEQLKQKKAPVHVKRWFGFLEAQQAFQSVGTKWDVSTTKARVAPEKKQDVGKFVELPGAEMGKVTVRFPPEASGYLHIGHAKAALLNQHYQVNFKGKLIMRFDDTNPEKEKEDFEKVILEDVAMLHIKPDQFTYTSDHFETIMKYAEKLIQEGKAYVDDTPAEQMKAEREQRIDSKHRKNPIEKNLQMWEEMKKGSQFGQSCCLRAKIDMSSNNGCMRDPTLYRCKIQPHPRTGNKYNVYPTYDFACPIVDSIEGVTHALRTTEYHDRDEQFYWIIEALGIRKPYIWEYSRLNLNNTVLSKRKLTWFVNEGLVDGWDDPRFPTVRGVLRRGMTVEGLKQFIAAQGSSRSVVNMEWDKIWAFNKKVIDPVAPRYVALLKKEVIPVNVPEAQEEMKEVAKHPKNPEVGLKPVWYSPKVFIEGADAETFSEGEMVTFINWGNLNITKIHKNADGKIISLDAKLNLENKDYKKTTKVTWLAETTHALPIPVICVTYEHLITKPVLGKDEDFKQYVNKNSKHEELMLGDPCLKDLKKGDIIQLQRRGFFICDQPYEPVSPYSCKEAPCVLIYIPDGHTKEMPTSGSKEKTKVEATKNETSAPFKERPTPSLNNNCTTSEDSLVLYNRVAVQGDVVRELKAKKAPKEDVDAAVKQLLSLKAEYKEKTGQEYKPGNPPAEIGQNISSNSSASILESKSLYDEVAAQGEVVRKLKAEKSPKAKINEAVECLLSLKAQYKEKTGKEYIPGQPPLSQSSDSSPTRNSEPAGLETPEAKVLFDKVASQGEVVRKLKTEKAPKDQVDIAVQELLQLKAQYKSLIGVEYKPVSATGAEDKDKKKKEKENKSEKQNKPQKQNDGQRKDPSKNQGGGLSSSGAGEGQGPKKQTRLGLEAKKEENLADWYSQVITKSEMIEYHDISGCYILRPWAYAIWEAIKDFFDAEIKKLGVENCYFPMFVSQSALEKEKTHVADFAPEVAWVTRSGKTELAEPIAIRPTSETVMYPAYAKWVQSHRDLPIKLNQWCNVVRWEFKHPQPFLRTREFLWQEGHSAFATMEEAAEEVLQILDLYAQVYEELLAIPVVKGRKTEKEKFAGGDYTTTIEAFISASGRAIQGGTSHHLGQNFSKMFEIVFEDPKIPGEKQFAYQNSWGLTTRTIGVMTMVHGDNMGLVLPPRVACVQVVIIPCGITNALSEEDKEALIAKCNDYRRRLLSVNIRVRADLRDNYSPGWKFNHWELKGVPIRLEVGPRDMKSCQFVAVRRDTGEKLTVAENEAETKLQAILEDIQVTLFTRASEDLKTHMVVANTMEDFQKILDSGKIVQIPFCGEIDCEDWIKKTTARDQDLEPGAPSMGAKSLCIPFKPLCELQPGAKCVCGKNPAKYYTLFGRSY

[2] = molecular target: T2, Human cytosolic isoleucyl-tRNA synthetase (human, UniProt P41252 1-1262); assay: pull-down; in vitro assembly of the MSC as in a2 but lacking hcLRS; anti-Flag beads on MRS-Flag; settings: both partners purified
T2 construct: human cytosolic isoleucyl-tRNA synthetase (IRS), gene cloned from the cDNA of HEK293 cells; also called IRS; source: recombinant from a modified pET28b, purified (Ni-NTA, gel filtration)
T2 sequence (looked up): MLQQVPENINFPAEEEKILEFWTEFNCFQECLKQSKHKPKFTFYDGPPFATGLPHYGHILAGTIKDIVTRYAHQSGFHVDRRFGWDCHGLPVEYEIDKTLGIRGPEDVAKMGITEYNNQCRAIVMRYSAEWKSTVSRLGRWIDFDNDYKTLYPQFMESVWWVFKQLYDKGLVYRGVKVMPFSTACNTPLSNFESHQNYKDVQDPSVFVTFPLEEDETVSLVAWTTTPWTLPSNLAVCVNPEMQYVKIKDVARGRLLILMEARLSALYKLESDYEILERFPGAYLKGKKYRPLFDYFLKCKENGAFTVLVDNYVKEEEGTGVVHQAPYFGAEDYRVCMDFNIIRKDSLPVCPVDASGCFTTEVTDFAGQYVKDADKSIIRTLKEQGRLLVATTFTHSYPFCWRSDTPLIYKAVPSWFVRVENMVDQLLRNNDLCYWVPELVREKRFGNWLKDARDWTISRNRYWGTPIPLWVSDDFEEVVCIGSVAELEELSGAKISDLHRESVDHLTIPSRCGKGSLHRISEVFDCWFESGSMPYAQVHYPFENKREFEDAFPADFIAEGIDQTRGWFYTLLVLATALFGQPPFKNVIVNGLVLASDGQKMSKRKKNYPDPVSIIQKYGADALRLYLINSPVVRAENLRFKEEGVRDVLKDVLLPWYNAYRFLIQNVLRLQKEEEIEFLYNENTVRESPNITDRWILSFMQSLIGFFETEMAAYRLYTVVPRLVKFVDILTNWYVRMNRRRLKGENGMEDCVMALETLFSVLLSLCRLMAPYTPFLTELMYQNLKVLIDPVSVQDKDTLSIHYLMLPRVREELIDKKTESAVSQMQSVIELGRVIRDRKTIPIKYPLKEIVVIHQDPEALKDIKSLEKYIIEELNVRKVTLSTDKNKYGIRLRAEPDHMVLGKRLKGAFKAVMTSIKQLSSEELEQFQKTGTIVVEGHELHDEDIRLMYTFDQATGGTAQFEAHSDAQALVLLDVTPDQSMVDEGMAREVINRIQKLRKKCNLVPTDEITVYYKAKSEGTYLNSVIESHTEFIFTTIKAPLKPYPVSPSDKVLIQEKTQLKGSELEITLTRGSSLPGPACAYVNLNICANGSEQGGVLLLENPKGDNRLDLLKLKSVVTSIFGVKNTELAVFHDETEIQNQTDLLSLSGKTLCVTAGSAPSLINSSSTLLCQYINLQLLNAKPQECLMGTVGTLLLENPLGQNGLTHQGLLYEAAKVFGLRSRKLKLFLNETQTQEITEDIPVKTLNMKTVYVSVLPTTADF

B1: MRS-AIMP3 complex (human cytosolic methionyl-tRNA synthetase co-expressed with AIMP3) (complex)
chain 1: MRLFVSDGVPGCLPVLAAAGRARGRAEVLISTVGPEDCVVPFLTRPKVPVLQLDSGNYLFSTSAICRYFFLLSGWEQDDLTNQWLEWEATELQPALSAALYYLVVQGKKGEDVLGSVRRALTHIDHSLSRQNCPFLAGETESLADIVLWGALYPLLQDPAYLPEELSALHSWFQTLSTQEPCQRAAETVLKQQGVLALRPYLQKQPQPSPAEGRAVTNEPEEEELATLSEEEIAMAVTAWEKGLESLPPLRPQQNPVLPVAGERNVLITSALPYVNNVPHLGNIIGCVLSADVFARYSRLRQWNTLYLCGTDEYGTATETKALEEGLTPQEICDKYHIIHADIYRWFNISFDIFGRTTTPQQTKITQDIFQQLLKRGFVLQDTVEQLRCEHCARFLADRFVEGVCPFCGYEEARGDQCDKCGKLINAVELKKPQCKVCRSCPVVQSSQHLFLDLPKLEKRLEEWLGRTLPGSDWTPNAQFITRSWLRDGLKPRCITRDLKWGTPVPLEGFEDKVFYVWFDATIGYLSITANYTDQWERWWKNPEQVDLYQFMAKDNVPFHSLVFPCSALGAEDNYTLVSHLIATEYLNYEDGKFSKSRGVGVFGDMAQDTGIPADIWRFYLLYIRPEGQDSAFSWTDLLLKNNSELLNNLGNFINRAGMFVSKFFGGYVPEMVLTPDDQRLLAHVTLELQHYHQLLEKVRIRDALRSILTISRHGNQYIQVNEPWKRIKGSEADRQRAGTVTGLAVNIAALLSVMLQPYMPTVSATIQAQLQLPPPACSILLTNFLCTLPAGHQIGTVSPLFQKLENDQIESLRQRFGGGQAKTSPKPAVVETVTTAKPQQIQALMDEVTKQGNIVRELKAQKADKNEVAAEVAKLLDLKKQLAVAEGKPPEAPKGKKKK
chain 2: MAAAAELSLLEKSLGLSKGNKYSAQGERQIPVLQTNNGPSLTGLTTIAAHLVKQANKEYLLGSTAEEKAIVQQWLEYRVTQVDGHSSKNDIHTLLKDLNSYLEDKVYLTGYNFTLADILLYYGLHRFIVDLTVQEKEKYLNVSRWFCHIQHYPGIRQHLSSVVFIKNRLYTNSH
notes: human cytosolic methionyl-tRNA synthetase (MRS), gene cloned from the cDNA of HEK293 cells; Only MRS carries the Flag tag; It is the bait of the anti-Flag pull-down of the assembled MSC; source: co-expressed from a modified pETDuet-1, purified (Ni-NTA, gel filtration); not shown: Flag, C-terminal, kept
Does B1 bind [1]?
Result: binds

Does B1 bind [2]?
Result: binds
